From patent publication US20100292083A1 (Ablynx, published 2010) come the findings set out here.

T1: human IL6R (human, UniProt P08887 20-358, limits assumed)
T1 construct: Antigen of the Biacore experiments
T1 sequence (looked up): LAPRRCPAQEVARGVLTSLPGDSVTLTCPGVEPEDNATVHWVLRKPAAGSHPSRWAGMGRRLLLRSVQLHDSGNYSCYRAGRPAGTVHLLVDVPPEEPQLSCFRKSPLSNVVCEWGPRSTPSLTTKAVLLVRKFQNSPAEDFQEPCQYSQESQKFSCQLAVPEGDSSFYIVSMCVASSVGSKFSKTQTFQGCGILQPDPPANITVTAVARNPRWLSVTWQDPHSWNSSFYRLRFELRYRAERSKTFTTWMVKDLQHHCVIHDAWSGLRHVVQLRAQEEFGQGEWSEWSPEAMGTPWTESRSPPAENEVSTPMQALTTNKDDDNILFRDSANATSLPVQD

B1: IL6R65PMP10A11 (VHH)
VHH: EVQLVESGGGLVQPGGSLRLSCAASGSIFKVNAMGWYRQAPGKGRELVAGIISGGSTNYADSVKGRFTISRDNAKNTLYLQMNSLRPEDTAVYYCAFIASNSEYDLGRRFWGQGTLVTVSS
notes: CDR3 library clone
B2: IL6R65PMP13A2 (VHH)
VHH: EVQLVESGGGLVQPGGSLRLSCAASGTIFRVNVMAWYRQAPGKGRELVAAIITDGTTTYADSVKGRFTISRDNAKNTLYLQMNSLRPEDTAVYYCAFVTTNSDYDLGRDYWGQGTLVTVSS
B3: IL6R65PMP11E9 (VHH)
VHH: EVQLVESGGGLVQPGGSLRLSCAASGTTFKINVMAWYRQAPGKGRELVAAIITGGTTTYADSVKGRFTISRDNAKNTLYLQMNSLRPEDTAVYYCAFVTTNSDYDLGRDYWGQGTLVTVSS
B4: IL6R65PMP11H4 (VHH)
VHH: EVQLVESGGGLVQPGGSLRLSCAASGSTFRLNVMAWYRQAPGKGRELVAAIITNGTTTYADSVKGRFTISRDNAKNTLYLQMNSLRPEDTAVYYCAFVTTNSDYDLGRDYWGQGTLVTVSS
B5: IL6R65PMP11E5 (VHH)
VHH: EVQLVESGGGLVQPGGSLRLSCAASGSTFRINIMAWYRQAPGKGRELVAGVITSGNTTYADSVKGRFTISRDNAKNTLYLQMNSLRPEDTAVYYCAFVTTNSDYDLGRDYWGQGTLVTVSS
B6: IL6R65PMP11F10 (VHH)
VHH: EVQLVESGGGLVQPGGSLRLSCAASGTTFKLNIMAWYRQAPGKGRELVAAVINGGTTTYADSVKGRFTISRDNAKNTLYLQMNSLRPEDTAVYYCAFVTTNSDYDLGRDYWGQGTLVTVSS
B7: IL6R65PMP11F3 (VHH)
VHH: EVQLVESGGGLVQPGGSLRLSCAASGTIFRINVMAWYRQAPGKGRELVAAIISGGSTTYADSVKGRFTISRDNAKNTLYLQMNSLRPEDTAVYYCAFVTTNSDYDLGRDYWGQGTLVTVSS
B8: IL6R65PMP12C8 (VHH)
VHH: EVQLVESGGGLVQPGGSLRLSCAASGTVFKINAMAWYRQAPGKGRELVAGLVSAGTANYADSVKGRFTISRDNAKNTLYLQMNSLRPEDTAVYYCAFVTTNSDYDLGRDYWGQGTLVTVSS
B9: IL6R65PMP11D4 (VHH)
VHH: EVQLVESGGGLVQPGGSLRLSCAASGTTFKINIMAWYRQAPGKGRELVAGVINSGTTNYADSVKGRFTISRDNAKNTLYLQMNSLRPEDTAVYYCAFVTTNSDYDLGRDYWGQGTLVTVSS
B10: IL6R65PMP11D6 (VHH)
VHH: EVQLVESGGGLVQPGGSLRLSCAASGTTFKINVMAWYRQAPGKGRELVAAIISGGSTPYADSVKGRFTISRDNAKNTLYLQMNSLRPEDTAVYYCAFVTTNSDYDLGRDYWGQGTLVTVSS
B11: IL6R65PMP11D12 (VHH)
VHH: EVQLVESGGGLVQPGGSLRLSCAASGTIFKINIMAWYRQAPGKGRELVAAIINSGSTSYADSVKGRFTISRDNAKNTLYLQMNSLRPEDTAVYYCAFVTTNSDYDLGRDYWGQGTLVTVSS
B12: IL6R65PMP11A12 (VHH)
VHH: EVQLVESGGGLVQPGGSLRLSCAASGTIFRVNVMAWYRQAPGKGRELVAGIITNGSTSYADSVKGRFTISRDNAKNTLYLQMNSLRPEDTAVYYCAFVTTNSDYDLGRDYWGQGTLVTVSS
B13: IL6R65PMP11H10 (VHH)
VHH: EVQLVESGGGLVQPGGSLRLTCAASGTTFKVNVMAWYRQAPGKGRELVAAVINGGTTSYADSVKGRFTISRDNAKNTLYLQMNSLRPEDTAVYYCAFVTTNSDYDLGRDYWGQGTLVTVSS
B14: IL6R65PMP12C7 (VHH)
VHH: EVQLVESGGGLVQPGGSLRLSCAASGSVYRINAMGWYRQAPGKGRELVAGLISAGSTNYADSVKGRFTISRDNAKNTLYLQMNSLRPEDTAVYYCAFVTTNSDYDLGRDYWGQGTLVTVSS
B15: IL6R65PMP11G11 (VHH)
VHH: EVQLVESGGGLVQPGGSLRLSCAASGTTFKINVMAWYRQAPGKGRELVAAIITSGTTSYADSVKGRFTISRDNAKNTLYLQMNSLRPEDTAVYYCAFVTTNSDYDLGRDYWGQGTLVTVSS
B16: IL6R65PMP11H2 (VHH)
VHH: EVQLVESGGGLVQPGGSLRLSCAASGSIFKINVMAWYRQAPGKGRELVAAIINGGTTSYADSVKGRFTISRDNAKNTLYLQMNSLRPEDTAVYYCAFVTTNSDYDLGRDYWGQGTLVTVSS
B17: IL6R65PMP11F1 (VHH)
VHH: EVQLVESGGGLVQPGGTLRLSCAASGSTFKINVMAWYRQAPGKGRELVAGVITNGSTTYADSVKGRFTISRDNAKNTLYLQMNSLRPEDTAVYYCAFVTTNSDYDLGRDYWGQGTLVTVSS
B18: IL6R65PMP11C4 (VHH)
VHH: EVQLVESGGGLVQPGGSLRLSCAASGTIFKINVMAWYRQAPGKGRELVAGIITNGSTTYADSVKGRFTISRDNAKNTLYLQMNSLRPEDTAVYYCAFVTTNSDYDLGRDYWGQGTLVTVSS
B19: IL6R65PMP11D11 (VHH)
VHH: EVQLVESGGGLVQPGGSLRLSCAASGSTFKINIMAWYRQAPGKGRELVAGVITGGNTNYADSVKGRFTISRDNAKNTLYLQMNSLRPEDTAVYYCAFVTTNSDYDLGRDYWGQGTLVTVSS
B20: IL6R65PMP11B4 (VHH)
VHH: EVQLVESGGGLVQPGGSLRLSCAASGSIFKINVMAWYRQAPGKGRELVAAIINGGTTSYADSVKGRFTISRDNAKNTLYLQMNSLRPEDTAVYYCAFVTTNSDYDLGRDYWGQGTLVTVSS
B21: IL6R65PMP12E1 (VHH)
VHH: EVQLVESGGGLVQPGGSLRLSCAANGSVYKVNAMAWYRQAPGKGRELVAGIVTGGTSNYADSVKGRFTISRDNAKNTLYLQMNSLRPEDTAVYYCAFVTTNSDYDLGRDYWGQGTLVTVSS
B22: IL6R65PMP13A4 (VHH)
VHH: EVQLVESGGGLVQPGGSLRLSCAASGTTFRLNVMAWYRQAPGKGRELVAAIITSGTTTYADSVKGRFTISRDNAKNTLYLQMNSLRPEDTAVYYCAFVTTNSDYDLGRDYWGQGTLVTVSS
B23: IL6R65PMP11C7 (VHH)
VHH: EVQLVESGGGLVQPGGSLRLSCAASGTIFKVNIMAWYRQAPGKGRELVAAIITSGTTTYADSVKGRFTISRDNAKNTLYLQMNSLRPEDTAVYYCAFVTTNSDYDLGRDYWGQGTLVTVSS
B24: IL6R65PMP11G7 (VHH)
VHH: EVQLVESGGGLVQPGGSLRLSCAASGTIFKLNVMAWYRQAPGKGRELVAAIITGGTTTYADSVKGRFTISRDNAKNTLYLQMNSLRPEDTAVYYCAFVTTNSDYDLGRDYWGQGTLVTVSS
B25: IL6R65PMP11F12 (VHH)
VHH: EVQLVESGGGLVQPGGSLRLSCAASGTTFRVNVMAWYRQAPGKGRELVAAIISGGSTTYADSVKGRFTISRDNAKNTLYLQMNSLRPEDTAVYYCAFVTTNSDYDLGRDYWGQGTLVTVSS
B26: IL6R65PMP11E4 (VHH)
VHH: EVQLVESGGGLVQPGGSLRLTCAASGTIFKVNVMAWYRQAPGKGRELVAAIITGGSTSYADSVKGRFTISRDNAKNTLYLQMNSLRPEDTAVYYCAFVTTNSDYDLGRDYWGQGTLVTVSS
B27: IL6R65PMP11E11 (VHH)
VHH: EVQLVESGGGLVQPGGSLRLSCAASGTTFKINVMAWYRQAPGKGRKLVAAIINNGNTTYADSVKGRFTISRDNAKNTLYLQMNSLRPEDTAVYYCAFVTTNSDYDLGRDYWGQGTLVTVSS
B28: IL6R65PMP11D3 (VHH)
VHH: EVQLVESGGGLVQPGGSLRLSCAASGSIFKLNVMAWYRQAPGKGRELVAGVITGGNTSYADSVKGRFTISRDNAKNTLYLQMNSLRPEDTAVYYCAFVTTNSDYDLGRDYWGQGTLVTVSS
B29: IL6R65PMP11G10 (VHH)
VHH: EVQLVESGGGLVQPGGSLRLSCAASGSTFRINVMAWYRQAPGKGRELVAGIITNGTTTYADSVKGRFTISRDNAKNTLYLQMNSLRPEDTAVYYCAFVTTNSDYDLGRDYWGQGTLVTVSS
B30: IL6R65PMP11E2 (VHH)
VHH: EVQLVESGGGLVQPGGSLRLSCAASGTTFKVNIMAWYRQAPGKGRELVAAIITGGSTSYADSVKGRFTISRDNAKNTLYLQMNSLRPEDTAVYYCAFVTTNSDYDLGRDYWGQGTLVTVSS

The test deals with T1, human IL6R. The experiment in a line: SPR (Biacore), periplasmic extract. On the procedure:
Selection outputs were analyzed by picking individual colonies and growing them overnight in 1 ml 2×YT (Yeast Tryptone) medium+100 ug/ml Carbenicillin at 37 C. Nanobody containing periplasmic extracts were prepared, diluted 1/10 in PBS and subsequently tested for antigen binding in ELISA. Clones with the highest ELISA signals were sequenced and analyzed on Biacore. […] The off-rate of the best clone from the CDR3 library was 7×10e-4 s-1.
On the technique in general: Surface plasmon resonance follows binding to a sensor surface in real time, without labels.
As usually defined, the koff is a measure of how fast the partners let go of each other. A lower koff goes with a long-lived complex. Turning to B1, the koff is 0.001 s⁻¹. The value for B2 was 0.00061 s⁻¹; that for B3 was 0.00035 s⁻¹.

B4 returned an off-rate constant (koff) of 0.0008 s⁻¹. With B5, the koff turned out to be 0.00048 s⁻¹. The value for B6 was 0.0013 s⁻¹. The value for B7 was 0.00048 s⁻¹; that for B8 was 0.00066 s⁻¹; that for B9 was 0.001 s⁻¹. In the case of B10 it was 0.00068 s⁻¹. In turn, B11 came in with a koff of 0.00058 s⁻¹. In the case of B12 it was 0.00012 s⁻¹. The value for B13 was 0.00043 s⁻¹. In the case of B14 it was 0.00091 s⁻¹. B15 yielded a koff of 0.0005 s⁻¹. The value for B16 was 0.0003 s⁻¹; that for B17 was 0.00037 s⁻¹; that for B18 was 0.00031 s⁻¹.

B19: the koff was determined as 0.00039 s⁻¹. In the case of B20 it was 0.00028 s⁻¹; in that of B21, 0.00026 s⁻¹. The value for B22 was 0.00072 s⁻¹. In the case of B23 it was 0.00085 s⁻¹. The molecule B24 gave a koff of 0.00036 s⁻¹. As to B25, the koff was determined as 0.00067 s⁻¹. The value for B26 was 0.00023 s⁻¹; that for B27 was 0.00049 s⁻¹; that for B28 was 0.00031 s⁻¹. In the case of B29 it was 0.00021 s⁻¹; in that of B30, 0.00068 s⁻¹.
